The values that follow are results of earlier work, collected in article PMC5776729.

For orientation: pKd means the Kd on a negative log10 scale, so that one unit is a factor of ten.

For data set [1], the target named is laminin 411 (Homo sapiens) (UniProt Q16363).
Data set [2] addresses laminin 511 (Homo sapiens) (UniProt O15230).
Data set [3] concerns the target laminin 111 (Mus musculus) (UniProt P19137).
Data set [4] has as its target laminin 111 (Homo sapiens) (UniProt P25391).

pKd: −log10 of the molar value.

UniProt Q16363, sequence (Q16363 25-1823, chain 1 of 3): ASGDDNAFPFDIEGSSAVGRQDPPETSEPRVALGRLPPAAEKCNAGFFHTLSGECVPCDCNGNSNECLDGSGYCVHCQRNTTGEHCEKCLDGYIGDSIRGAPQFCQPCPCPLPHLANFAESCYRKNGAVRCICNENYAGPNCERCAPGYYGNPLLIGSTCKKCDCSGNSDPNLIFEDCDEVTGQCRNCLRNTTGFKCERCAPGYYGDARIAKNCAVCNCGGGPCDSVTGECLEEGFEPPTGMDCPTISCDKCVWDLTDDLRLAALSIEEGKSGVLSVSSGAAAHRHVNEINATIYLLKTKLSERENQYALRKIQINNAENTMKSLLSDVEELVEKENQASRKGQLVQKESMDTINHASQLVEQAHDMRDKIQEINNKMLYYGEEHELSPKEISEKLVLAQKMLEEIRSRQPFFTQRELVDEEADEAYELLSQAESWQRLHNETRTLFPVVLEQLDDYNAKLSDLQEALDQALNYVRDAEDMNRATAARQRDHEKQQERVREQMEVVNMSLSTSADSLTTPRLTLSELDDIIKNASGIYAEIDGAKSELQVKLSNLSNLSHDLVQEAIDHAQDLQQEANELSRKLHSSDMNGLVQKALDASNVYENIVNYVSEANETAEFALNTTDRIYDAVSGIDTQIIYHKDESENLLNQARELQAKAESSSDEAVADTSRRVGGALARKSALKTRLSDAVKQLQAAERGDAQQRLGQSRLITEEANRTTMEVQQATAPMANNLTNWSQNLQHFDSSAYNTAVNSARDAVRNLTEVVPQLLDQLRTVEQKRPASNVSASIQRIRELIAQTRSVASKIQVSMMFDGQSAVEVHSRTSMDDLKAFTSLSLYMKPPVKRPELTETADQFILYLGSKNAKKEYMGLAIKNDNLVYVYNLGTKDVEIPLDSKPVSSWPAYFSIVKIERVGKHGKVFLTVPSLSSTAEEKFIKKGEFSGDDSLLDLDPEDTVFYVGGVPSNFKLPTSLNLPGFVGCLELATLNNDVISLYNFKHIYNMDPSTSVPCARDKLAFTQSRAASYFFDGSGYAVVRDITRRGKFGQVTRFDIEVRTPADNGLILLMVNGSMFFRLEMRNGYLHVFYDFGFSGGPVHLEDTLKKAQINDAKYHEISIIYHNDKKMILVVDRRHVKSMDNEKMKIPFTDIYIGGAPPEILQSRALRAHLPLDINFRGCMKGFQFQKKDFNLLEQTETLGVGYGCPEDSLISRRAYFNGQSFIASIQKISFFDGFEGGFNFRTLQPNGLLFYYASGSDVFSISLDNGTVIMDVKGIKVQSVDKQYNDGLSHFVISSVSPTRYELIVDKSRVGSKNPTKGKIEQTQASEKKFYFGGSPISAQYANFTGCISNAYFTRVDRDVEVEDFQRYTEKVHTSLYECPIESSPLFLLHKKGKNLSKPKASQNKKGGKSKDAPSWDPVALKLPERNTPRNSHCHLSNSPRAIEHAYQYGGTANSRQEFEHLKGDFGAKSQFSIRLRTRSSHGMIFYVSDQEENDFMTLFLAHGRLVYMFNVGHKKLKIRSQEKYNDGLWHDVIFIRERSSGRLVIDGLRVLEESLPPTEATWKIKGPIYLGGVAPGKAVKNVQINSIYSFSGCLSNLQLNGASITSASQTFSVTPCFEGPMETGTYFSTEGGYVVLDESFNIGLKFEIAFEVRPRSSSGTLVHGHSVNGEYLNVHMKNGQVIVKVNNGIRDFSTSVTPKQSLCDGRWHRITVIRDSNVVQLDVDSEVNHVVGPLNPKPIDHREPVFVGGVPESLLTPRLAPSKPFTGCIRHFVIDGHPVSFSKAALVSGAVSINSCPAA
UniProt Q16363, sequence (P07942 22-1786, chain 2 of 3, further chain): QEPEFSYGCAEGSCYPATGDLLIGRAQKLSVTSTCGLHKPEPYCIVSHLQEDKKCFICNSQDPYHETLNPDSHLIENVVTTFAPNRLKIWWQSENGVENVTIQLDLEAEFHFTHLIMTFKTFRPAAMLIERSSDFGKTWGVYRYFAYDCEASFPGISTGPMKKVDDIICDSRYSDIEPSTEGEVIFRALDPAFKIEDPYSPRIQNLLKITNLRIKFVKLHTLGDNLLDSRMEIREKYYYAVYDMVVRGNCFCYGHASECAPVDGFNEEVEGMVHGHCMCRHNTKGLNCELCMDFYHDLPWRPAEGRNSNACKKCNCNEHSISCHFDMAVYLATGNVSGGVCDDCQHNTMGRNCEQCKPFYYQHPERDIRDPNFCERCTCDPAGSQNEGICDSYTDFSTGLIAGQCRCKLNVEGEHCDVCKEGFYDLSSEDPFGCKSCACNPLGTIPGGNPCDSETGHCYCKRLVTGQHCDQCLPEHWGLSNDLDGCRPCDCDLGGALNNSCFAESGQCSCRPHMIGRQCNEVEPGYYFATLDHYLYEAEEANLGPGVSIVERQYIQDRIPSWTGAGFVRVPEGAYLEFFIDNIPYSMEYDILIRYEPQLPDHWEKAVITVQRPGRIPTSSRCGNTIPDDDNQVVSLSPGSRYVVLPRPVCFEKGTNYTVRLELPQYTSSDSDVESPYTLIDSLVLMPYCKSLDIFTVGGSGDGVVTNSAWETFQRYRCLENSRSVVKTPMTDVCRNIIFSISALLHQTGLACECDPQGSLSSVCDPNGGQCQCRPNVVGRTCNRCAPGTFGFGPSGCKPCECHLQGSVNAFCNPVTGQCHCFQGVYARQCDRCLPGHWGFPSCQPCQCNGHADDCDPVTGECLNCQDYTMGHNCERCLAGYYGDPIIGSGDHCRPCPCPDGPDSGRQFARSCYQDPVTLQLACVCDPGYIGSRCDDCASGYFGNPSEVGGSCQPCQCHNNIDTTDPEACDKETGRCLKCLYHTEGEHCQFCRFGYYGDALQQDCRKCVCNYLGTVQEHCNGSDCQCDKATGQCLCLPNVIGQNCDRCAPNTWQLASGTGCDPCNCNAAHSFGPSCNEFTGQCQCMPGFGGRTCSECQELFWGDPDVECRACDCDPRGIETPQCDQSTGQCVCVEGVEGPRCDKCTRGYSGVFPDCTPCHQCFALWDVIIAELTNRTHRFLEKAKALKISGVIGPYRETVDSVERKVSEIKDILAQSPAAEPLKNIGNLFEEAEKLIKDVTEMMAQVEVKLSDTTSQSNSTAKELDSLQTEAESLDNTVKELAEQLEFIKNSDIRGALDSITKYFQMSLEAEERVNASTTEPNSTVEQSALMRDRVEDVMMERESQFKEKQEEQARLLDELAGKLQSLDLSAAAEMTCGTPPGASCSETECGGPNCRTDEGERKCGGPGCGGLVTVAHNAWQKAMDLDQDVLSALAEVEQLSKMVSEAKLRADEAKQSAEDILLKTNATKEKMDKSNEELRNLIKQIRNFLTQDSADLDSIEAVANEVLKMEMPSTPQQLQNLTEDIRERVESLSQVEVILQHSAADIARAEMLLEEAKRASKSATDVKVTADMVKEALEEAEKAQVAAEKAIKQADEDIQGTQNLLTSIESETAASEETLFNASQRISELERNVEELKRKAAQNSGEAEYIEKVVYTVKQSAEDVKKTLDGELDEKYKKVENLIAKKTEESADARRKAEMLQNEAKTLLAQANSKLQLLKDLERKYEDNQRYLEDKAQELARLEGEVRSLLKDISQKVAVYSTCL
UniProt Q16363, sequence (P11047 34-1609, chain 3 of 3, further chain): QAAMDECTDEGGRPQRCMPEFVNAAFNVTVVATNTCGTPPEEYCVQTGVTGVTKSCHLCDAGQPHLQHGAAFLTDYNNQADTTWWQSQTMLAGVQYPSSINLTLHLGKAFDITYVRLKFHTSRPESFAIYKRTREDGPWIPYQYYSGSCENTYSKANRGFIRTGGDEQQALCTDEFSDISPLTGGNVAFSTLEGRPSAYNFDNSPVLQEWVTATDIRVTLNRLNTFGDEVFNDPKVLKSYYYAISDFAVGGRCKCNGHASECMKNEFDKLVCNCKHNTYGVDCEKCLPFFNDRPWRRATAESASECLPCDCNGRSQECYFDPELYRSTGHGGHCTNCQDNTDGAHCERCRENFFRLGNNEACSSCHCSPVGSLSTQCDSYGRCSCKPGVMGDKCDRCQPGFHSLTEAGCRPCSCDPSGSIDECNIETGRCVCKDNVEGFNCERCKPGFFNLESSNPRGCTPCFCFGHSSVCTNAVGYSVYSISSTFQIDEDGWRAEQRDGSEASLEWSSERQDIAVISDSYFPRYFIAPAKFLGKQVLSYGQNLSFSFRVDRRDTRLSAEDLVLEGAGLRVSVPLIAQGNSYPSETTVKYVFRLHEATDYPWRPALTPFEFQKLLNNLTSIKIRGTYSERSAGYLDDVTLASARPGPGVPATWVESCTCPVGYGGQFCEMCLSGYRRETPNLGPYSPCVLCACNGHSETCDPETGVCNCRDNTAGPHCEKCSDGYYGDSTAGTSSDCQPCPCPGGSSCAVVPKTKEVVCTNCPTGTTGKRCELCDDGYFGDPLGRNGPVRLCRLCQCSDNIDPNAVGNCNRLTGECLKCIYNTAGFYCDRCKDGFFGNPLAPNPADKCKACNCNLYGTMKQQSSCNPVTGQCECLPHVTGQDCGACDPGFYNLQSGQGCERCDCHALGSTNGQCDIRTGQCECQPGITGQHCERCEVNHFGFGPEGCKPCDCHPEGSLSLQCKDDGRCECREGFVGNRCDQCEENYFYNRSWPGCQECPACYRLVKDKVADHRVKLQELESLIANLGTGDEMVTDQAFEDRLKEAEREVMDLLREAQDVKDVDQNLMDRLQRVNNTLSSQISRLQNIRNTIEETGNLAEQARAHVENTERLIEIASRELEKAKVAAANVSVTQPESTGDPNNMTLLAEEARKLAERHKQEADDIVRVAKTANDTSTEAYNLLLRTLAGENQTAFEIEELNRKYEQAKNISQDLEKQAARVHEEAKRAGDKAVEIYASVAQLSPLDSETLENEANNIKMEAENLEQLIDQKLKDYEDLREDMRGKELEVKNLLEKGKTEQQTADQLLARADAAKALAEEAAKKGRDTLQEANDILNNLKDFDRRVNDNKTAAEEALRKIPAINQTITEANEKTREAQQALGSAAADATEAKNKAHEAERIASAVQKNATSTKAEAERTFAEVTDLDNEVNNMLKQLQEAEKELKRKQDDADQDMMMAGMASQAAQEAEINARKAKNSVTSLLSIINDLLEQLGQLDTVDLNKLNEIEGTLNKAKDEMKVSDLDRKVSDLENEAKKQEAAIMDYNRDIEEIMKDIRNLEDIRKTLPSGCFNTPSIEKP

Factor XI (from UniProt P03951): the pKd was 8.04 in data set [1], 8.08 in data set [2], 7.73 in data set [3] and 7.95 in data set [4].
